# From FireProtDB (doi:10.1021/bi00493a013)
# Where “and” joins values, the source holds several entries; their conditions need not be identical. Equal entries are not always repeated.
# Details: Rattus norvegicus, pH 7.2, 20 °C, CD, Potassium phosphate 20 mM, reversible: yes, whole UniProt chain shown
protein,measurement,setting,value
"Fatty acid-binding protein, brain wild type, P55051 (protein) MVDAFCATWKLTDSQNFDEYMKALGVGFATRQVGNVTKPTVIISQEGGKVVIRTQCTFKNTEISFQLGEEFEETSIDDRNCKSVIRLDGDKLIHVQKWDGKETNCVREIKDGKMVVTLTFGDVVAVRCYEKA",denaturant m value,"DimethylUrea, NaCl 1 M",1.81 kcal/mol/M
same,denaturant midpoint (higher = more stable),"DimethylUrea, NaCl 1 M",5.36 M
same,unfolding free energy,"DimethylUrea, NaCl 1 M",9.71 kcal/mol
same,denaturant m value,GdnHCl,4.21 kcal/mol/M
same,denaturant midpoint (higher = more stable),GdnHCl,1.33 M
same,unfolding free energy,GdnHCl,5.58 kcal/mol
same,denaturant m value,GdnSCN,14 kcal/mol/M
same,denaturant midpoint (higher = more stable),GdnSCN,0.73 M
same,unfolding free energy,GdnSCN,10.2 kcal/mol
same,denaturant m value,Urea,1.82 kcal/mol/M and 2.17 kcal/mol/M
same,denaturant midpoint (higher = more stable),Urea,5.43 M and 5.79 M
same,unfolding free energy,Urea,9.91 kcal/mol and 12.6 kcal/mol
